Laboratory results from paper PMC6642547, “HERA-GITRL activates T cells and promotes anti-tumor efficacy independent of FcγR-binding functionality” (Journal for Immunotherapy of Cancer, 2019).

Biological target: T1, HERA-GITRL (hexavalent TNF receptor agonist); single-chain GITRL-receptor-binding-domain fused to a silenced … (human, UniProt Q9UNG2 56-177; Q9UNG2 56-177; Q9UNG2 56-177)
T1 construct: glycine-serine based linker, 8 amino acids in length; GITRL (TNFSF18), human, second copy of E56-S177; GITRL (TNFSF18), human, third copy of E56-S177; also called hexavalent HERA-GITRL; scGITRL-RBD-Fc; not shown: Strep-Tag II, C-terminal, kept
T1 sequence (Q9UNG2 whole entry, the tested form may be a part, one chain of several): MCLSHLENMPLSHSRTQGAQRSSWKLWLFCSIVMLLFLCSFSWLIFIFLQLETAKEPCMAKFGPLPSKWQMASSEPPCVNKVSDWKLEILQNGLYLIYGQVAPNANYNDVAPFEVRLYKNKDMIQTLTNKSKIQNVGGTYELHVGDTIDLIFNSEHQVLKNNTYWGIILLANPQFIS
Assay: not stated; binding to and dissociation from the GITR-Fc receptors measured in real time, equilibrium binding constants (KD) calculated; instrument and who was immobilised not told in what was shown
Conditions: both partners purified

B1: cynomolgus monkey GITR-Fc (Fc fusion)
chain: QRPTGGPGCGPGRLLLGTGKDARCCRIHPTRCCGDYQGEECCSEWDCVCVQPEFHCGNPCCTTCQHHPCPSGQGVQPQGKFSFGFRCVDCALGTFSRGHDGHCKPWTDCTQFGFLTVFPGNKTHNAVCVPGSPPAEPPG
In the case of B1, the Kd is reported as 0.602 nM.
